Results: patent US5710126A, “T cell epitopes of ryegrass pollen allergen” (ImmuLogic Pharmaceutical Corporation, priority 1995, dated 1998)

Legend:
[1] = system: human basophil mediator release; assay: Histamine release assay on whole blood of a ryegrass allergic individual; format: cell-based; settings: one ryegrass allergic individual; 37° C., 30 minutes; FIG. 12
Method: A histamine release assay was performed on one ryegrass allergic individual, using Lol p SPE and rLol p V as the added antigens. This assay is a measure of IgE reactivity through human basophil mediator release, and it is based on the detection of an acylated derivative of histamine using a specific monoclonal antibody (Morel, A. M. and Delaage, M. A.; 1988, J. Allergy Clin. Immunol. 82:646-654). The reagents for this radioimmunoassay are sold as a kit by Amac Inc. (Westbrook, Me.). Whole heparinized blood drawn from a grass allergic individual and then 200 μl aliquots were mixed with an equal amount of the grass antigens SPE and rLol p V at various concentrations or the diluent, PACM buffer (25 mM PIPES, 100 mM NaCl, 5 mM KCL, 4 mM CaCl2, 1 mM MgCl2, 0.003% HSA, pH7.3) in 1.5 ml polypropylene. The release reactions were carried out at 37° C. for 30 minutes. After this incubation, the samples were centrifuged at 1500 RPM for 3 minutes and the supernatants removed. For the total histamine release, 0.1 ml of blood was added to 0.9 ml of PACM buffer, vortexed, and then boiled for 3 minutes. The samples were spun at 13000 RPM and the supernatant removed for analysis. Duplicate samples were used to measure total release. All of the supernatants are diluted 1:4 in acylation buffer and the remainder of the assay is performed according to the manufacturer's instructions.

[2] = system: T cell lines from grass-allergic patients primed in vitro with affinity purified Lol p V; assay: T cell proliferation (tritiated thymidine uptake) of Lol p V-primed T cell lines restimulated with peptides or proteins; format: cell-based, human; settings: one allergic patient; results not shown; 2-50 μg/ml antigen
Source text: As discussed in Example 2, human T cell stimulating activity can be tested by culturing T cells obtained from an individual sensitive to Lol p V allergen, (i.e., an individual who has an IgE mediated immune response to Lol p V allergen) with a peptide derived from the allergen and determining whether proliferation of T cells occurs in response to the peptide as measured, e.g., by cellular uptake of tritiated thymidine. Stimulation indices for responses by T cells to peptides can be calculated as the maximum CPM in response to a peptide divided by the control CPM. A stimulation index (S.I.) equal to or greater than two times the background level is considered "positive". […]
In addition, preferred peptides have a positivity index (P.I.) of at least about 60, more preferably about 100, more preferably at least about 200 and most preferably at least about 300. The positivity index for a peptide is determined by multiplying the mean T cell stimulation index by the percent of individuals, in a population of individuals sensitive to ryegrass pollen (e.g., preferably a population of at least 15 individuals,more preferably a population of at least 30 individuals or more), who have a T cell stimulation index to such peptide of at least 2.0. […]
This amount of priming antigen was determined to be optimal for the activation of T cells from most grass-allergic patients. […]

[3] = system: human IgE; assay: Direct ELISA of human IgE binding to coated antigen
Method: (§1) To examine the importance of Lol p V, both direct and competition ELISA assays were performed. In the direct ELISA, 100 μl of 10 μg/ml of antigen in Phosphate Buffered Saline, pH 7.4 (PBS) was used to coat Immulon II (Dynatech, Chantilly, Va.) 96 well plates for 4 hours at room temperature (RT) or overnight (O/N) at 4° C. In between each step the plates were washed 3× with PBS-T. The excess coating antigen(s) was removed and the wells blocked with 300 μl/well 0.5% gelatin+1 mg/ml PVP in PBS for 1 hour at RT. Serially diluted patient plasma or the diluent PBS+0.05% Tween^-20 was incubated in at 100 μl/well in duplicate wells overnight at 4° C. […] Plates were read on a MR7000 plate reader (Dynatech, Chantilly, Va.) with a 450 nm filter. The absorbance levels of duplicate wells were averaged. The results were graphed as absorbance vs. dilution. […] The results are plotted as the absorbance vs. the log of the concentration of competing antigen.
For the direct ELISA, wells were coated with either soluble pollen extract (SPE) of ryegrass pollen or rLol p V (purified native Lol p V may have a small amount of Lol p I; use of recombinant material assures that the IgE binding is only to Lol p V ) and human IgE antibody binding to these antigens was analyzed. […]

[4] = system: human IgE binding to ryegrass pollen SPE; assay: Competition ELISA for IgE binding to ryegrass pollen SPE; settings: IgE source PHP-A or individual patient plasma; FIGS. 10 and 11
Method: as §1
In the competition assay, ELISA wells were coated with ryegrass pollen SPE and then allergic patient IgE binding was measured in the presence of competing ryegrass pollen SPE, purified native Lol p V, or rLol p V. The source of allergic IgE in this assay was PHP-A (FIG. 10) or individual patient plasma (FIG. 11). […]

[5] = system: specific IgE antibody; settings: immunoblotting; Lol p V isoforms; WO 93/04174; cited from earlier work

B1: rLol p V: bacterially expressed recombinant Lol p V encoded by clone 12R, with His6 sequence, purified on Ni chelating column (protein)
chain: ADAGYTPAAAATPATPAATPAAAGGKATTDEQKLLEDVNAGFKAAVAAAANAPPADKFKIFEAAFSESSKGLLATSAAKAPGLIPKLDTAYDVAYKAAEGATPEAKYDAFVTALTEALRVIAGALEVHAVKPATEEVPAAKIPTGELQIVDKIDAAFKIAATAANAAPTNDKFTVFESAFNKALNECTGGAYETYKFIPSLEAAVKQAYAATVAAAPEVKYAVFEAALTKAITAMTQAQKAGKPAAAAATGAATVATGAATAAAGAATAAAGGYKA
[1]
  histamine release: strong histamine release over a wide concentration range
[2]
  T cell proliferative response of one patient: responds well
[3]; IgE source PHP-A, PHP-B or four individual patients, FIGS. 6-9
  IgE binding in direct ELISA: high IgE binding
[3]; IgE source PHP-B, preliminary assay, FIGS. 13a and 13b
  IgE binding in direct ELISA to Lol p V peptides and protein: very high IgE binding

B2: purified native Lol p V: Lol p V allergen affinity purified from ryegrass pollen extract on a mAb 1B9 column (protein)
chain: ADAGYTPAAAATPATPAATPAAAGGKATTDEQKLLEDVNAGFKAAVAAAANAPPADKFKIFEAAFSESSKGLLATSAAKAPGLIPKLDTAYDVAYKAAEGATPEAKYDAFVTALTEALRVIAGALEVHAVKPATEEVPAAKIPTGELQIVDKIDAAFKIAATAANAAPTNDKFTVFESAFNKALNECTGGAYETYKFIPSLEAAVKQAYAATVAAAPEVKYAVFEAALTKAITAMTQAQKAGKPAAAAATGAATVATGAATAAAGAATAAAGGYKA
modifications: The 5 proline residues at the N-terminus were found to be all hydroxyprolines
[2]
  T cell proliferative response of one patient: responds well

B3: Lol p V: major Lolium perenne L. ryegrass pollen allergen, Group V allergen (protein)
chain: ADAGYTPAAAATPATPAATPAAAGGKATTDEQKLLEDVNAGFKAAVAAAANAPPADKFKIFEAAFSESSKGLLATSAAKAPGLIPKLDTAYDVAYKAAEGATPEAKYDAFVTALTEALRVIAGALEVHAVKPATEEVPAAKIPTGELQIVDKIDAAFKIAATAANAAPTNDKFTVFESAFNKALNECTGGAYETYKFIPSLEAAVKQAYAATVAAAPEVKYAVFEAALTKAITAMTQAQKAGKPAAAAATGAATVATGAATAAAGAATAAAGGYKA
[4]
  competition for IgE binding to ryegrass pollen SPE: a significant portion of IgE against Lol p SPE is specific for Lol p V
[5]
  ryegrass pollen sensitive patients possessing specific IgE antibody that bound: 80%
